T1: human DLL3 antigen (human, UniProt Q9NYJ7 27-492, limits assumed)
T1 construct: also called immobilized human DLL3; recombinant human DLL3
T1 sequence (looked up): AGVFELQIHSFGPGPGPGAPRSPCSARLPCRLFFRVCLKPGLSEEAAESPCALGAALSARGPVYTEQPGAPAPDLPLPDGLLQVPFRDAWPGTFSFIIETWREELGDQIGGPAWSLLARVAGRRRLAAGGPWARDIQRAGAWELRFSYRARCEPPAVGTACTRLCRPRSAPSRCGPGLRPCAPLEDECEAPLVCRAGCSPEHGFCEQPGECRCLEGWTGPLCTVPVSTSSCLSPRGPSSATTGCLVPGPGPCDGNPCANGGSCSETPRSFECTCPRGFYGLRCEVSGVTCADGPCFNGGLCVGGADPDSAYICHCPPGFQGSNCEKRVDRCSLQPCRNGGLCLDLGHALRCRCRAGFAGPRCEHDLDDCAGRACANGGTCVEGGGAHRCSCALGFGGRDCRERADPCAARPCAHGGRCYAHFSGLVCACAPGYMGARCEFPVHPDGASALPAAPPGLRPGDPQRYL

B1: SC16.34 (antibody, V domains shown)
VH: QIQLVQSGPELKRPGETVKISCKASGYTFTNYGMNWVKQAPGKGLKWMGWINTYTGDPTYADDFKGRFAFSLETSASTAYLQINNLKNEDTATYFCARIGGNSPSDYWGQGTSLTVSS
VL: SIVMTQTPKFLLVSAGDRVTITCKASQSVSNDVAWYQQKPGQSPKLLIYYASNRYSGVPDRFTGSGYGTDFTFTISTVQAEDLAVYFCQQDYSSPWTFGGGTKLEIK
notes: murine mAb
B2: SC16.26 (antibody, V domains shown)
VH: QIQLVQSGPELKKPGETVKISCKASGYSFTDYSMHWVKQAPGKGLKWMGWINTETVEPTYADDFMGRFAFSLETSASTAFLQINNLENEDTATYFCARFGSYAMDYWGQGTS
VL: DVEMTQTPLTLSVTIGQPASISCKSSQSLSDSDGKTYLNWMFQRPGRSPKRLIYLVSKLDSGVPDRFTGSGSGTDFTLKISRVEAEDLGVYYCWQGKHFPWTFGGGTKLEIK
notes: murine mAb
B3: SC16.18 (antibody, V domains shown)
VH: EVKLEESGGGLVQPGESMKLSCAASGFTFSDAWMDWVRQSPEKGLEWVAEIRNKANNHATYYAESVKGKFTISRDDSKSRVYLQMNNLRAADTGIYYCTAYSNFAYWGQGTLVTVST
VL: DIQMTQTTSSLSASLGDRVTISCRASQNIINYLNWYQQKPDGTVKLLIYYTSRLHSGVPSRFSGSGSGTDYSLTISNLEPEDIATYYCQQYSERPYTFGGGTKLEIKR
notes: murine mAb
B4: SC16.41 (antibody, V domains shown)
VH: B3 VH with P14F, E16G, A63P, K69R, A91E, A100G, N103S, T117A
VL: B3 VL with N28D, I29V, G68R
notes: murine mAb
B5: SC16.5 (antibody, V domains shown)
VH: QVTLKESGPGILQPSQTLSLTCSFSGFSLSTSGMGVGWIRQPSGEGLEWLADIWWDDNKYYNPSLKSRLTISKDTSSNQVFLKITSVDTADTATYYCARRVNYVYDPYYAMDYWGQGTSVTVSS
VL: QIVLTQSPAIMSASPGEKVTMTCSASSSVSYMHWYQQKSGTSPKRWIYDTSKLASGVPARFSGSGSGTSYSLTISSMEAEDAATYYCQQWTRNPLTFGAGTKLELK
notes: murine mAb
B6: SC16.25 (antibody, V domains shown)
VH: B5 VH with A51T, K83N, V104Y
VL: B5 VL with T50S, T91S, R92S
notes: murine mAb
B7: SC16.4 (antibody, V domains shown)
VH: QIQLVQSGPELKKPGETVKISCKASGYTFTDYSMHWVKQAPGKGLKWMGWINTETGEPGYADDFKGRFAFSLETSASTAYLQINNLKNEDTATYFCARYDGYAMDYWGQGTSVTVSS
VL: DIQMTQTTSSLSASLGDRVTISCRASQDISNYLNWYQQKPDGTVKLLIYYTSRLHSGVPSRFSGSGSGTDYSLTISNLELEDIATYFCQQGDMLPWTFGGGTKLEIK
notes: murine mAb; also called mAb SC16.4
B8: SC16.35 (antibody, V domains shown)
VH: DVQLQESGPGLVKPSQSLSLTCTVTGYSITSDYAWNWIRQFPGNKLEWMGYISYSGSTSYNPSLKSRISITRDTSKNQFFLQLNSVTTEDTATYYCARFYYGSSYAMDYWGQGTSVTVSS
VL: B7 VL with L80Q, D92N, M93T, W96Y
notes: murine mAb
B9: SC16.29 (antibody, V domains shown)
VH: QVQLQQSGAELARPGASVKLSCKASGYTFTDQYINWVKQRTGQGLEWIGEIYPGRGNTYYNEKFKGKATLTADKSSSTAYMQLSSLTSEDSAVYFCAREDGGYDDAWFAYWGQGTLVTVSA
VL: QIVLTQSPAIMSASPGEKVTITCSASSSVSYMHWFQQKPGTSPKLWIYTTSNLASGVPARFSGSGSGTSYSLTVSRMEAEDAATYYCQQRSLYPYTFGGGTKVEIK
notes: murine mAb
B10: SC16.21 (antibody, V domains shown)
VH: QVQLQQSGPELVKPGASVKISCKASGYAFSSSWMNWVKQRPGKGLEWIGRIYPGDGDTNYNGKFKGKATLTADKSSSTAYMQLSSLTSEDSAVYFCAMGIYNYDGSRYYSMDYWGQGTSVTVSS
VL: DIVMTQSPSSLAMSVGQKVTMSCKSSQSLLNSSNQKNYLAWYQQEPGQSPKLLVSFASTRESGVPDRFTGSGSGTDFTLTISGVQAEDLAVYYCQQHYSIPLTFGAGTKLELK
notes: murine mAb
B11: SC16.3 (antibody, V domains shown)
VH: QVTLKESGPGILQPSQTLSLTCSFSGFSLSTSGMGVGWIRQPSGKGLEWLAHIWWDDVKRYNPALKSRLTISKDTSSSQVFLKIASVDTADTATYYCARIADYGGDYYAMDYWGQGTSVTVSS
VL: QIVLTQSPAIMSVSLGERVTMTCTASSSVSSSYLHWYQQKPGSSPKLWIYSTSNLASGVPARFSGSGSGTSYFFTISSMEAEDAATYYCHQYHRSPFTFGAGTKLKIR
notes: murine mAb; also called mAb SC16.3
B12: SC16.30 (antibody, V domains shown)
VH: QVTLKESGPGILQPSQTLSLTCSFSGFSLSTSGMGVGWIRQPSGKGLEWLAHIWWDDVKRYKPALKSRLTVSKDTSSNQVFLKIATVDAADTGTYYCARIVDGHPPFAYWGQGTLVTVSA
VL: B11 VL with A9T, V13A, S30T, F73S, F74L, Y92F, A101S, K106E, R108K
notes: murine mAb
B13: SC16.20 (antibody, V domains shown)
VH: QVQLQQSGTELVRPGTSVRVSCKASGYAFGNHLIEWVKQRPGQGLEWIGVINPGTGGTHYNEKFKDKARLTADKSSNTAYMHLNSLTSDDSAVYFCARSPYDYHEGAMDYWGQGTSVTVSS
VL: EIQMTQSPSSMSASLGDRITITCQATQDIVKNLNWYQQKPGKPPSFLIYYATELAEGVPSRFSGSGSGSDYSLTIRNLESEDFADHYCLQFYEFPFTFGAGTKLELK
notes: murine mAb
B14: SC16.23 (antibody, V domains shown)
VH: QVTLKESGPGILQPSQTLSLTCSFSGFSLSTSNTGIGWIRQPSGTGLEWLAHIWWNDDKYYNPSLKSRLTISKETSNNQVFLKITNVDTADTASYFCVQIGRDYSNYAWYFDVWGAGTTVTVSS
VL: QIVLTQSPAIMSASPGEKVTLTCSASSSVSSRYLYWYQQKPGSSPKLWIYSTSNLASGVPARFSGSGSGTSYSLIISSMEAEDAASYFCHQWSNYPLTFGAGTKLELK
notes: murine mAb
B15: SC16.19 (antibody, V domains shown)
VH: EVQLQQSGAELVRPGASVKLSCTASGFNIKDSLLHWVKQRPEKGLEWIGWIDPEDGETKYAPNFQDKATITTDSSSNTAYLQLISLTSVDTAIYYCAYGNYVRHFDYWGQGTTLTVSS
VL: DIQMTQSPSSLSASLGGKVTFTCKASQDIHKYVAWYQHKPGKGPRLLIHYTSTLQPGISSRFSGSGSGRDYSFSISNLEPEDIATYYCLQYNNLYTFGGGTKLEIKR
notes: murine mAb
B16: SC16.22 (antibody, V domains shown)
VH: QVQLQQPGAELVKPGASVKLSCKASGYTFTTYWMHWVKQRPGQGLEWIGEIDPSDSYTYYNQKFKGKATLTVDKSSSTAYMQLSSLTSEDSAVYYCARGDYGNPYAMDYWGQGSSVTVSS
VL: DIQMTQTTSSLSASLGDRVTISCRASQDIKNYLNWYQQKPDGTVKPLIYYTSRVHSGVPSRFSGSGSGTDYSLTISNLEQEDIATYFCQQGYTLPFTFGSGTKLE
notes: murine mAb

Numbering of substitutions follows the chain as printed.

The assay addresses T1, human DLL3 antigen. Description: ELISA or flow cytometry screen.
In the case of B1, the binding result is listed as “binds”.
With B2 the entry was “binds”; with B3, “binds”; with B4, “binds”.
The same measure for B5: “binds”.
Turning to B6, the binding result is “binds”.
Consider B7, for which the binding result is listed as “binds”.
With B8 the entry was “binds”; with B9, “binds”; with B10, “binds”.
With B11 the entry was “binds”.
The same measure for B12: “binds”; for B13: “binds”; for B14: “binds”.
As to B15, the binding result is recorded as “binds”.
The same measure for B16: “binds”.

These data come from patent publication US20140370037A1 (published 2014).
